From paper PMC7911073, “Overproduction of Human Zip (SLC39) Zinc Transporters in Saccharomyces cerevisiae for Biophysical Characterization” (Cells, 2021)

Assays:
[1] = molecular target: the molecule itself; test: SDS-PAGE with Coomassie staining of SEC-pure samples (monomer and dimer bands); fractions of the main SEC peak in DDM + CHS
[2] = molecular target: the molecule itself; test: SDS-PAGE with Coomassie staining and in-gel GFP fluorescence (monomer and dimer bands); IMAC eluate of hZIP1-TEV-GFP-His solubilized in 2% DDM + 0.68% CHS
[3] = molecular target: the molecule itself; test: SDS-PAGE with Coomassie staining and immunoblot by the tag (monomer and dimer bands); affinity-pure fractions (IMAC or StrepII-tag affinity) of N-terminal hZIP1 fusions solubilized in 2% DDM + 0.2% CHS; blot with 6xHis mAb-HRP or Strep-Tactin HRP

B1: StrepII-TEV-hZIP1 (natural protein, human, UniProt Q9NY26 1-324, looked up)
chain: MGPWGEPELLVWRPEAVASEPPVPVGLEVKLGALVLLLVLTLLCSLVPICVLRRPGANHEGSASRQKALSLVSCFAGGVFLATCLLDLLPDYLAAIDEALAALHVTLQFPLQEFILAMGFFLVLVMEQITLAYKEQSGPSPLEETRALLGTVNGGPQHWHDGPGVPQASGAPATPSALRACVLVFSLALHSVFEGLAVGLQRDRARAMELCLALLLHKGILAVSLSLRLLQSHLRAQVVAGCGILFSCMTPLGIGLGAALAESAGPLHQLAQSVLEGMAAGTFLYITFLEILPQELASSEQRILKVILLLAGFALLTGLLFIQI
notes: human ZIP1 (hZIP1), full-length, codon-optimized cDNA; UniProt Q9NY26; A TEV protease site stands between the StrepII tag and hZIP1; not cleaved here; Predicted MW 36.5 kDa; also called N-terminal hZIP1 fusion; not shown: StrepII, N-terminal, kept
binding result [1]: binds

B2: hZIP1-TEV-GFP-His (natural protein, human, UniProt Q9NY26 1-324, looked up)
chain: B1 chain
notes: human ZIP1 (hZIP1), full-length, codon-optimized cDNA synthesized by GenScript; UniProt Q9NY26; A TEV protease site (ENLYFQ↓SQF) stands between hZIP1 and GFP-His8; the fusion could not be cleaved by TEV protease; Predicted MW 63.3 kDa; also called hZIP1 C-terminally fused to TEV-GFP-His-tag; SLC39 family member; source: S. cerevisiae PAP1500, in whole-cell lysate; also purified from crude …
binding result [2]: binds

B3: His-TEV-hZIP1 (natural protein, human, UniProt Q9NY26 1-324, looked up)
chain: B1 chain
notes: human ZIP1 (hZIP1), full-length, codon-optimized cDNA; UniProt Q9NY26; A TEV protease site stands between the His8 tag and hZIP1; also called N-terminal hZIP1 fusion; source: S. cerevisiae PAP1500, purified from crude membranes solubilized in 2% DDM + 0.2% CHS (IMAC); not shown: His8, N-terminal, kept
binding result [3]: binds
